*1 amine or outer side, *2 acyl side, *3 side chain or, on linkers, in order; H or OH if unused. Where no end group is shown, it is not given here. Side-chain parts run from the residue outwards. [ ]: non-standard residue; d: D form. The star is where a group is joined. C18 diacid = O=C(O)CCCCCCCCCCCCCCCCC(=O)*; C16 diacid = O=C(O)CCCCCCCCCCCCCCC(=O)*; γGlu = O=C(O)[C@H](CCC(=O)[*:2])N[*:1]; Glutaryl = O=C(CCCC(=O)[*:2])[*:1]; Nle = CCCC[C@H](N)C(=O)O; AEEA = NCCOCCOCC(=O)O; Aib = CC(C)(N)C(=O)O

The source of these data is patent US20220298218A1 (ANTAG THERAPEUTICS, published 2022).

T1: human GIP receptor (human, UniProt P48546 22-466)
T1 sequence (looked up): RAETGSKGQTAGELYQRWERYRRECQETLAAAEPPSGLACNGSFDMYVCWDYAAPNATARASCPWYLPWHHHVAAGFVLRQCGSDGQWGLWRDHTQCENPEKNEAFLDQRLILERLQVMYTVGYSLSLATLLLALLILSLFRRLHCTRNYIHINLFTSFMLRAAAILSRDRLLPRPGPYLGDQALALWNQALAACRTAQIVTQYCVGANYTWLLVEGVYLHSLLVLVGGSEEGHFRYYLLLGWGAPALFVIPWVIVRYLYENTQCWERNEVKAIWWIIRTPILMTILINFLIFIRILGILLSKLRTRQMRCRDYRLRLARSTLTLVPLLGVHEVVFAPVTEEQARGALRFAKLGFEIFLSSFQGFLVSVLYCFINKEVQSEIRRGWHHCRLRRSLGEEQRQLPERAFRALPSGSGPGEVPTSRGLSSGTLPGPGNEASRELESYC

B1: AT674 (peptide)
peptide: EGTFISEYSI[Aib][Nle]EKIK(C16 diacid)QQEFVEWLLAQKPSSGAPPPS-OH
modifications: N-terminus assumed
SMILES: CCCC[C@H](NC(=O)C(C)(C)NC(=O)[C@@H](NC(=O)[C@H](CO)NC(=O)[C@H](Cc1ccc(O)cc1)NC(=O)[C@H](CCC(=O)O)NC(=O)[C@H](CO)NC(=O)[C@@H](NC(=O)[C@H](Cc1ccccc1)NC(=O)[C@@H](NC(=O)CNC(=O)[C@@H](N)CCC(=O)O)[C@@H](C)O)[C@@H](C)CC)[C@@H](C)CC)C(=O)N[C@@H](CCC(=O)O)C(=O)N[C@@H](CCCCN)C(=O)N[C@H](C(=O)N[C@@H](CCCCNC(=O)CCCCCCCCCCCCCCC(=O)O)C(=O)N[C@@H](CCC(N)=O)C(=O)N[C@@H](CCC(N)=O)C(=O)N[C@@H](CCC(=O)O)C(=O)N[C@@H](Cc1ccccc1)C(=O)N[C@H](C(=O)N[C@@H](CCC(=O)O)C(=O)N[C@@H](Cc1c[nH]c2ccccc12)C(=O)N[C@@H](CC(C)C)C(=O)N[C@@H](CC(C)C)C(=O)N[C@@H](C)C(=O)N[C@@H](CCC(N)=O)C(=O)N[C@@H](CCCCN)C(=O)N1CCC[C@H]1C(=O)N[C@@H](CO)C(=O)N[C@@H](CO)C(=O)NCC(=O)N[C@@H](C)C(=O)N1CCC[C@H]1C(=O)N1CCC[C@H]1C(=O)N1CCC[C@H]1C(=O)N[C@@H](CO)C(=O)O)C(C)C)[C@@H](C)CC
B2: AT680 (peptide)
peptide: EGTFISDYSIAMDKIK([AEEA-AEEA-γGlu-C18 diacid])QQDFVNWLLAQKPSSGAPPPS-OH
modifications: N-terminus assumed
SMILES: CC[C@H](C)[C@H](NC(=O)[C@H](CO)NC(=O)[C@H](Cc1ccc(O)cc1)NC(=O)[C@H](CC(=O)O)NC(=O)[C@H](CO)NC(=O)[C@@H](NC(=O)[C@H](Cc1ccccc1)NC(=O)[C@@H](NC(=O)CNC(=O)[C@@H](N)CCC(=O)O)[C@@H](C)O)[C@@H](C)CC)C(=O)N[C@@H](C)C(=O)N[C@@H](CCSC)C(=O)N[C@@H](CC(=O)O)C(=O)N[C@@H](CCCCN)C(=O)N[C@H](C(=O)N[C@@H](CCCCNC(=O)COCCOCCNC(=O)COCCOCCNC(=O)CC[C@H](NC(=O)CCCCCCCCCCCCCCCCC(=O)O)C(=O)O)C(=O)N[C@@H](CCC(N)=O)C(=O)N[C@@H](CCC(N)=O)C(=O)N[C@@H](CC(=O)O)C(=O)N[C@@H](Cc1ccccc1)C(=O)N[C@H](C(=O)N[C@@H](CC(N)=O)C(=O)N[C@@H](Cc1c[nH]c2ccccc12)C(=O)N[C@@H](CC(C)C)C(=O)N[C@@H](CC(C)C)C(=O)N[C@@H](C)C(=O)N[C@@H](CCC(N)=O)C(=O)N[C@@H](CCCCN)C(=O)N1CCC[C@H]1C(=O)N[C@@H](CO)C(=O)N[C@@H](CO)C(=O)NCC(=O)N[C@@H](C)C(=O)N1CCC[C@H]1C(=O)N1CCC[C@H]1C(=O)N1CCC[C@H]1C(=O)N[C@@H](CO)C(=O)O)C(C)C)[C@@H](C)CC
B3: AT675 (peptide)
peptide: [γGlu]GTFISDYSIAMDKIK(C16 diacid)QQDFVNWLLAQKPSSGAPPPS-OH
modifications: N-terminus assumed
SMILES: CC[C@H](C)[C@H](NC(=O)[C@H](CO)NC(=O)[C@H](Cc1ccc(O)cc1)NC(=O)[C@H](CC(=O)O)NC(=O)[C@H](CO)NC(=O)[C@@H](NC(=O)[C@H](Cc1ccccc1)NC(=O)[C@@H](NC(=O)CNC(=O)CC[C@H](N)C(=O)O)[C@@H](C)O)[C@@H](C)CC)C(=O)N[C@@H](C)C(=O)N[C@@H](CCSC)C(=O)N[C@@H](CC(=O)O)C(=O)N[C@@H](CCCCN)C(=O)N[C@H](C(=O)N[C@@H](CCCCNC(=O)CCCCCCCCCCCCCCC(=O)O)C(=O)N[C@@H](CCC(N)=O)C(=O)N[C@@H](CCC(N)=O)C(=O)N[C@@H](CC(=O)O)C(=O)N[C@@H](Cc1ccccc1)C(=O)N[C@H](C(=O)N[C@@H](CC(N)=O)C(=O)N[C@@H](Cc1c[nH]c2ccccc12)C(=O)N[C@@H](CC(C)C)C(=O)N[C@@H](CC(C)C)C(=O)N[C@@H](C)C(=O)N[C@@H](CCC(N)=O)C(=O)N[C@@H](CCCCN)C(=O)N1CCC[C@H]1C(=O)N[C@@H](CO)C(=O)N[C@@H](CO)C(=O)NCC(=O)N[C@@H](C)C(=O)N1CCC[C@H]1C(=O)N1CCC[C@H]1C(=O)N1CCC[C@H]1C(=O)N[C@@H](CO)C(=O)O)C(C)C)[C@@H](C)CC
B4: AT677 (peptide)
peptide: Glutaryl-GTFISDYSIAMDKIK(C16 diacid)QQDFVNWLLAQKPSSGAPPPS-OH
SMILES: CC[C@H](C)[C@H](NC(=O)[C@H](CO)NC(=O)[C@H](Cc1ccc(O)cc1)NC(=O)[C@H](CC(=O)O)NC(=O)[C@H](CO)NC(=O)[C@@H](NC(=O)[C@H](Cc1ccccc1)NC(=O)[C@@H](NC(=O)CNC(=O)CCCC(=O)O)[C@@H](C)O)[C@@H](C)CC)C(=O)N[C@@H](C)C(=O)N[C@@H](CCSC)C(=O)N[C@@H](CC(=O)O)C(=O)N[C@@H](CCCCN)C(=O)N[C@H](C(=O)N[C@@H](CCCCNC(=O)CCCCCCCCCCCCCCC(=O)O)C(=O)N[C@@H](CCC(N)=O)C(=O)N[C@@H](CCC(N)=O)C(=O)N[C@@H](CC(=O)O)C(=O)N[C@@H](Cc1ccccc1)C(=O)N[C@H](C(=O)N[C@@H](CC(N)=O)C(=O)N[C@@H](Cc1c[nH]c2ccccc12)C(=O)N[C@@H](CC(C)C)C(=O)N[C@@H](CC(C)C)C(=O)N[C@@H](C)C(=O)N[C@@H](CCC(N)=O)C(=O)N[C@@H](CCCCN)C(=O)N1CCC[C@H]1C(=O)N[C@@H](CO)C(=O)N[C@@H](CO)C(=O)NCC(=O)N[C@@H](C)C(=O)N1CCC[C@H]1C(=O)N1CCC[C@H]1C(=O)N1CCC[C@H]1C(=O)N[C@@H](CO)C(=O)O)C(C)C)[C@@H](C)CC

The target of the assay is T1, human GIP receptor. Kind of assay: cell-based or functional assay.
B1: the “cAMP agonism % Emax” value worked out at 0%, the “cAMP antagonism” value came out at 0.447 nM, the “cAMP antagonism % inhib” value is 93% and the “cAMP antagonism pIC50” value is 9.4.
On to [βGlu]GTFISDYSIAMDKIK(C16 diacid)QQDFVNWLLAQKPSSGAPPPS-OH [AT676], for which the “cAMP agonism % Emax” value turned out to be 0%, the “cAMP antagonism” value was 2.33 nM, the “cAMP antagonism % inhib” value stood at 91% and the “cAMP antagonism pIC50” value stood at 8.6.
Turning to B2, the “cAMP agonism % Emax” value turned out to be 0%, the “cAMP antagonism” value stood at 4.3 nM, the “cAMP antagonism % inhib” value is 93% and the “cAMP antagonism pIC50” value is 8.4.
On to B3, for which the “cAMP agonism % Emax” value is 3%, the “cAMP antagonism” value was 4.3 nM, the “cAMP antagonism % inhib” value came to 90% and the “cAMP antagonism pIC50” value was 8.4.
For B4, the “cAMP agonism % Emax” value was found to be 0%, the “cAMP antagonism” value came to 0.447 nM, the “cAMP antagonism % inhib” value was found to be 93% and the “cAMP antagonism pIC50” value turned out to be 9.4.
